Results reported in patent US20200087405A1 (UNIVERSITY OF SASKATCHEWAN, published 2020).

What was measured:
[1] = biological target: T1, Fc-tagged extracellular domain (ECD) of the recombinant human EGFR (rhEGFR) (human, UniProt P00533 25-645); test: apparent affinity by multi-point competitive ELISA using purified EGFR, Fab-phage; Fab-phage, first account of the DL06 selection
T1 construct: extracellular domain; also called rhEGFR-ECD; rhEGFR-ECD-Fc; not shown: Fc tag of the bought protein (R&D 344-ER)

[2] = biological target: T2, cell-surface EGFR (endogenous on A431, MDA-MB-231 and other cancer cell lines); pBABE-EGFR transfected 293T … (UniProt P00533 25-1210, limits assumed); test: flow cytometry on A431 cells, 800CW-labelled fragment
T2 construct: whole, on cells; Untagged EGFR on cells; also called endogenous cell-surface EGFR; EGFR1

[3] = biological target: T3, Fc-tagged ECD of ErbB3 (R&D 348-RB) (human, UniProt P21860 20-643); test: single point Fab-phage ELISA on immobilized protein
T3 construct: extracellular domain; also called ErbB family member; not shown: Fc tag of the bought protein

[4] = biological target: T4, Fc-tagged ECD of ErbB4 (ErbB family member, R&D 1131-ER) (human, UniProt Q15303 26-651); test: as above
T4 construct: extracellular domain; not shown: Fc tag of the bought protein
T4 sequence (looked up): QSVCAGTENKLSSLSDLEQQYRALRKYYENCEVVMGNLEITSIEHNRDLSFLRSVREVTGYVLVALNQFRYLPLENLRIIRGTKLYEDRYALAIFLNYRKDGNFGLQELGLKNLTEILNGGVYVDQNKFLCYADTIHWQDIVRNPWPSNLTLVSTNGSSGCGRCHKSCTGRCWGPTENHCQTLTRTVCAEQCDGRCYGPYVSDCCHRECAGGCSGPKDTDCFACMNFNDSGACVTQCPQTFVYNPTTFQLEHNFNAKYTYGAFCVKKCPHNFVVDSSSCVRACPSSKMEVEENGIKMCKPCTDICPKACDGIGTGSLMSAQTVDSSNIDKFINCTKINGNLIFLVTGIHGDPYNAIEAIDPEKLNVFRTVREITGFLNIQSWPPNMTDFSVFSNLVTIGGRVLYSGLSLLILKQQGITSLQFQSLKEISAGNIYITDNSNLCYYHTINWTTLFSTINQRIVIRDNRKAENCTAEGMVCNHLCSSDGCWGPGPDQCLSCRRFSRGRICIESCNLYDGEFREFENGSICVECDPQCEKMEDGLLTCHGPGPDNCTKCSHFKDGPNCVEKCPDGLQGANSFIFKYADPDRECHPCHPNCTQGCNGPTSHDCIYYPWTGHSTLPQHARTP

[5] = biological target: T5, Fc-tagged ECD of ErbB2 (ErbB family member, R&D 1129-ER) (human, UniProt P04626 23-652); test: as above
T5 construct: extracellular domain; not shown: Fc tag of the bought protein

B1: Fab DL06 (Fab)
heavy: EVQLVESGGGLVQPGGSLRLSCAASGFNISSSSIHWVRQAPGKGLEWVAYISSYYSSTYYADSVKGRFTISADTSKNTAYLQMNSLRAEDTAVYYCARTYCPPLMLYNPTTYQMDVNPEGKYSFGATCGWAMDYWGQGTLVTVSSASTKGPSVFPLAPSSKSTSGGTAALGCLVKDYFPEPVTVSWNSGALTSGVHTFPAVLQSSGLYSLSSVVTVPSSSLGTQTYICNVNHKPSNTKVDKKVEPKSCDKTHT
light: DIQMTQSPSSLSASVGDRVTITCRASQSVSSAVAWYQQKPGKAPKLLIYSASSLYSGVPSRFSGSRSGTDFTLTISSLQPEDFATYYCQQWSYYPITFGQGTKVEIKRTVAAPSVFIFPPSDSQLKSGTASVVCLLNNFYPREAKVQWKVDNALQSGNSQESVTEQDSKDSTYSLSSTLTLSKADYEKHKVYACEVTHQGLSSPVTKSFNRGECGGSDYKDDDDK
notes: Fab with the EGFR dimerization loop grafted in CDR-H3; the light chain entry ends in a FLAG tag; also called DL06 Fab; parent clone DL06
Question: Which results are given for B1?
Answer: Kd [1]: > 100 nM; Kd [2]: > 1000 nM; binding result [3]: binds; binding result [4]: no binding; binding result [5]: no binding
